This is an account of results in publication PMC2553180.

For experiment [1], the target named is previously unrecognized receptor on the RBC (receptor for PfRH5) (human (endogenous in erythrocytes)). Description: other fluorescence titration; competition: 2 µM rhodamine-rRH5 with 25 µl packed RBC ghosts in PBS and increasing unlabeled rRH5 (0.1 to 400 µM), 2 h at RT, bound labeled rRH5 by spectrofluorimetry.
The target is the same in experiment [2]. The experiment in a line: other fluorescence titration; […] fit for identical independent binding sites.

Usually IC50 stands for the concentration that inhibits the measured activity by half. Substance “recombinant PfRH5 protein (rRH5), 143-aa fragment Asn-31 to Val-174, GST fusion (domain or fragment)” came in with an IC50 in experiment [1] of 50 µM.

Usually Kd stands for the concentration at which binding is half-saturated. Low values mean higher affinity, high ones lower affinity. On to “rhodamine-labeled rRH5 (domain or fragment)”, for which the Kd in experiment [2] is 12 µM.
